This is an account of results in PMC12287357 (2025).

The Kd is the concentration at which binding is half-saturated. A high value points to lower affinity.

The assay has as its target SteE_pS141pY143. Nature of the assay: BLI.

B1: recombinant His6-STAT3^127-715 (domain or fragment)
chain: GQANHPTAAVVTEKQQMLEQHLQDVRKRVQDLEQKMKVVENLQDDFDFNYKTLKSQGDMQDLNGNNQSVTRQKMQQLEQMLTALDQMRRSIVSELAGLLSAMEYVQKTLTDEELADWKRRQQIACIGGPPNICLDRLENWITSLAESQLQTRQQIKKLEELQQKVSYKGDPIVQHRPMLEERIVELFRNLMKSAFVVERQPCMPMHPDRPLVIKTGVQFTTKVRLLVKFPELNYQLKIKVCIDKDSGDVAALRGSRKFNILGTNTKVMNMEESNNGSLSAEFKHLTLREQRCGNGGRANCDASLIVTEELHLITFETEVYHQGLKIDLETHSLPVVVISNICQMPNAWASILWYNMLTNNPKNVNFFTKPPIGTWDQVAEVLSWQFSSTTKRGLSIEQLTTLAEKLLGPGVNYSGCQITWAKFCKENMAGKGFSFWVWLDNIIDLVKKYILALWNEGYIMGFISKERERAILSTKPPGTFLLRFSESSKEGGVTFTWVEKDISGKTQIQSVEPYTKQQLNNMSFAEIIMGYKIMDATNILVSPLVYLYPDIPKEEAFGKYCRPESQEHPEADPGSAAPYLKTKFICVTP
With B1, the affinity, expressed as Kd, was 1400 nM.
